Patent US20250154231A1
Read-outs that look alike come from different tables or passages of the source.

Experiments:
Assay in all cases: cell-based or functional assay
[1] = target: SARS-CoV-2 spike (S) protein, Omicron BA.2.75 (SARS-CoV-2) (UniProt P0DTC2)
[2] = target: SARS-CoV-2 spike (S) protein, Omicron BA.2 (SARS-CoV-2) (UniProt P0DTC2)
[3] = target: SARS-CoV-2 Omicron BA.1 spike (S) protein of the live isolate (SARS-CoV-2) (UniProt P0DTC2)
[4] = target: SARS-CoV-2 Delta spike (S) protein (SARS-CoV-2) (UniProt P0DTC2)
[5] = target: SARS-CoV-2 spike (S) protein, Victoria strain (SARS-CoV-2) (UniProt P0DTC2)
[6] = target: SARS-CoV-2 Alpha spike (S) protein (SARS-CoV-2) (UniProt P0DTC2)
[7] = target: SARS-CoV-2 spike (S) protein, Omicron BA.4/5 (SARS-CoV-2) (UniProt P0DTC2)
[8] = target: SARS-CoV-2 Gamma spike (S) protein (SARS-CoV-2) (UniProt P0DTC2)
[9] = target: SARS-CoV-2 spike (S) protein, Omicron BA.4.6 (SARS-CoV-2) (UniProt P0DTC2)
[10] = target: SARS-CoV-2 Omicron BA.2 spike (S) protein (SARS-CoV-2) (UniProt P0DTC2)
[11] = target: SARS-CoV-2 Victoria spike (S) protein (SARS-CoV-2) (UniProt P0DTC2)
[12] = target: SARS-CoV-2 Beta spike (S) protein (SARS-CoV-2) (UniProt P0DTC2)
[13] = target: SARS-CoV-2 spike (S) protein, Omicron BA.3 (SARS-CoV-2) (UniProt P0DTC2)
[14] = target: SARS-CoV-2 spike (S) protein, Omicron BA.1 (SARS-CoV-2) (UniProt P0DTC2)
[15] = target: SARS-CoV-2 spike (S) protein, Omicron BA.1.1 (SARS-CoV-2) (UniProt P0DTC2)
[16] = target: SARS-CoV-2 spike (S) protein, Omicron BA.2 (SARS-CoV-2) (UniProt P0DTC2); remark: listed apart in the source
[17] = target: SARS-CoV-2 Omicron BA.1.1 spike (S) protein (SARS-CoV-2) (UniProt P0DTC2)
[18] = target: SARS-CoV-2 spike (S) protein, Omicron BJ.1 (SARS-CoV-2) (UniProt P0DTC2)
[19] = target: SARS-CoV-2 spike (S) protein, Victoria strain (SARS-CoV-2) (UniProt P0DTC2); remark: listed apart in the source
[20] = target: SARS-CoV-2 spike (S) protein, Omicron BA.4/5 (SARS-CoV-2) (UniProt P0DTC2); remark: listed apart in the source
[21] = target: SARS-CoV-2 spike (S) protein, Omicron BA.4.6 (SARS-CoV-2) (UniProt P0DTC2); remark: listed apart in the source
[22] = target: SARS-CoV-2 spike (S) protein, Omicron BA.2.75.2 (SARS-CoV-2) (UniProt P0DTC2)
[23] = target: SARS-CoV-2 spike (S) protein, Omicron BA.2.75 (SARS-CoV-2) (UniProt P0DTC2); remark: listed apart in the source
[24] = target: SARS-CoV-2 spike (S) protein, Omicron BA.2 (SARS-CoV-2) (UniProt P0DTC2); remark: listed apart in the source
[25] = target: SARS-CoV-2 spike (S) protein, Omicron BA.2.3.20 (SARS-CoV-2) (UniProt P0DTC2)
[26] = target: SARS-CoV-2 spike (S) protein, Omicron BA.2.75 (SARS-CoV-2) (UniProt P0DTC2); remark: listed apart in the source
[27] = target: SARS-CoV-2 spike (S) protein, Omicron BA.2 (SARS-CoV-2) (UniProt P0DTC2); remark: listed apart in the source
[28] = target: SARS-CoV-2 Omicron BA.4/5 spike (S) protein (SARS-CoV-2) (UniProt P0DTC2)
[29] = target: SARS-CoV-2 Omicron BA.2 spike (S) protein, pseudovirus construct (SARS-CoV-2) (UniProt P0DTC2)
[30] = target: SARS-CoV-2 Omicron BA.1 spike (S) protein, pseudovirus construct (SARS-CoV-2) (UniProt P0DTC2)
[31] = target: SARS-CoV-2 Omicron BA.3 spike (S) protein (SARS-CoV-2) (UniProt P0DTC2)
[32] = target: SARS-CoV-2 Omicron BA.3 spike (S) protein, pseudovirus construct (SARS-CoV-2) (UniProt P0DTC2)
[33] = target: SARS-CoV-2 Omicron (BA.1) spike (S) protein, live virus isolate (SARS-CoV-2) (UniProt P0DTC2)
[34] = target: SARS-CoV-2 Alpha (B.1.1.7) spike (S) protein (SARS-CoV-2) (UniProt P0DTC2)
[35] = target: SARS-CoV-2 spike (S) protein, Omicron BA.2.75 (SARS-CoV-2) (UniProt P0DTC2); remark: listed apart in the source
[36] = target: SARS-CoV-2 Omicron BA.1.1 spike (S) protein, pseudovirus construct (SARS-CoV-2) (UniProt P0DTC2)
[37] = target: SARS-CoV-2 Omicron BA.1 spike (S) protein of the pseudovirus (SARS-CoV-2) (UniProt P0DTC2)
[38] = target: SARS-CoV-2 Beta (B.1.351) spike (S) protein (SARS-CoV-2) (UniProt P0DTC2)
[39] = target: SARS-CoV-2 Gamma (P.1) spike (S) protein (SARS-CoV-2) (UniProt P0DTC2)

Chain of AZD8895 (antibody) (VH): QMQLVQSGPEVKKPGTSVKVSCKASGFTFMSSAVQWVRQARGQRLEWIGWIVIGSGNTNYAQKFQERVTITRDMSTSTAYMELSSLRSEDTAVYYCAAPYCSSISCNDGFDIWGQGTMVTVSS
Chain of AZD8895 (antibody) (VL): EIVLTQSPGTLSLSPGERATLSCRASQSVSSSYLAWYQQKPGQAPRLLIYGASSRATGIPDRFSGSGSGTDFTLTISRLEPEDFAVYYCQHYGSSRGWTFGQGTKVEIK
Chain of Omi-32 (antibody) (VH): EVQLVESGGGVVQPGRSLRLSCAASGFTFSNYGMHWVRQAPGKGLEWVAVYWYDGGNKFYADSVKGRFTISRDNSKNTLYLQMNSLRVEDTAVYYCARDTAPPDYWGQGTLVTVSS
Chain of Omi-32 (antibody) (VL): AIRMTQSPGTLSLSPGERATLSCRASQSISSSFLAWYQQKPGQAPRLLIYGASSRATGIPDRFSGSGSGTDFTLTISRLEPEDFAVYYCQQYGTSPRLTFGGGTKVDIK

AZD8895 (antibody) was tested. Which pseudovirus neutralisation IC50 [1] did it give?
The pseudovirus neutralisation IC50 was 0.008 µg/mL.

What about the pseudovirus neutralisation IC50 [2] of the same substance?
The pseudovirus neutralisation IC50 was 1.99 µg/mL.

And the IC50, authentic virus neutralization [3]?
The IC50, authentic virus neutralization was 1.15 µg/mL.

And the IC50, authentic virus neutralization [4]?
The IC50, authentic virus neutralization was 0.003 µg/mL.

And the IC50, pseudoviral neutralization [5]?
Its IC50, pseudoviral neutralization is 0.001 µg/mL.

What about the pseudovirus neutralisation IC50 [5] of the same substance?
Its pseudovirus neutralisation IC50 is 0.001 µg/mL.

And the IC50, authentic virus neutralization [6]?
Its IC50, authentic virus neutralization is 0.011 µg/mL.

What about the IC50, pseudoviral neutralization [7] of the same substance?
Its IC50, pseudoviral neutralization is > 10 µg/mL.

What about the pseudovirus neutralisation IC50 [7] of the same substance?
The pseudovirus neutralisation IC50 was > 10 µg/mL.

And the IC50, authentic virus neutralization [8]?
The IC50, authentic virus neutralization was 0.046 µg/mL.

What about the IC50, pseudoviral neutralization [9] of the same substance?
Its IC50, pseudoviral neutralization is > 10 µg/mL.

And the IC50, authentic virus neutralization [10]?
Its IC50, authentic virus neutralization is 7.7 µg/mL.

What about the IC50, authentic virus neutralization [11] of the same substance?
Its IC50, authentic virus neutralization is 0.005 µg/mL.

What about the IC50, authentic virus neutralization [12] of the same substance?
The IC50, authentic virus neutralization was 0.046 µg/mL.

What about the IC50, pseudoviral neutralization [13] of the same substance?
Its IC50, pseudoviral neutralization is > 10 µg/mL.

And the pseudovirus neutralisation IC50 [13]?
Its pseudovirus neutralisation IC50 is > 10 µg/mL.

What about the IC50, pseudoviral neutralization [14] of the same substance?
The IC50, pseudoviral neutralization was 0.246 µg/mL.

And the pseudovirus neutralisation IC50 [14]?
Its pseudovirus neutralisation IC50 is 0.246 µg/mL.

What about the IC50, pseudoviral neutralization [15] of the same substance?
Its IC50, pseudoviral neutralization is 0.1 µg/mL.

What about the pseudovirus neutralisation IC50 [15] of the same substance?
The pseudovirus neutralisation IC50 was 0.1 µg/mL.

And the IC50, pseudoviral neutralization [16]?
The IC50, pseudoviral neutralization was 1.33 µg/mL.

And the pseudovirus neutralisation IC50 [16]?
Its pseudovirus neutralisation IC50 is 1.33 µg/mL.

What about the IC50, authentic virus neutralization [17] of the same substance?
Its IC50, authentic virus neutralization is 6.08 µg/mL.

And the IC50, pseudoviral neutralization [18]?
Its IC50, pseudoviral neutralization is 0.114 µg/mL.

And the IC50, pseudoviral neutralization [19]?
The IC50, pseudoviral neutralization was 0.001 µg/mL.

And the IC50, pseudoviral neutralization [20]?
Its IC50, pseudoviral neutralization is > 10 µg/mL.

What about the IC50, pseudoviral neutralization [21] of the same substance?
The IC50, pseudoviral neutralization was > 10 µg/mL.

What about the IC50, pseudoviral neutralization [22] of the same substance?
The IC50, pseudoviral neutralization was > 10 µg/mL.

What about the IC50, pseudoviral neutralization [23] of the same substance?
Its IC50, pseudoviral neutralization is 0.008 µg/mL.

And the IC50, pseudoviral neutralization [24]?
Its IC50, pseudoviral neutralization is 1.33 µg/mL.

And the IC50, pseudoviral neutralization [25]?
The IC50, pseudoviral neutralization was 0.007 µg/mL.

With Omi-32 (antibody) as the substance, how does the pseudovirus neutralisation IC50 [26] read?
Its pseudovirus neutralisation IC50 is 0.354 µg/mL.

What about the pseudovirus neutralisation IC50 [27] of the same substance?
Its pseudovirus neutralisation IC50 is 2.61 µg/mL.

What about the IC50, authentic virus neutralization [3] of the same substance?
Its IC50, authentic virus neutralization is 0.024 µg/mL.

What about the Authentic virus-IC50 [4] of the same substance?
Its Authentic virus-IC50 is 0.012 µg/mL.

And the IC50, authentic virus neutralization [4]?
The IC50, authentic virus neutralization was 0.012 µg/mL.

And the pseudovirus neutralisation IC50 [5]?
Its pseudovirus neutralisation IC50 is 0.01 µg/mL.

And the IC50, pseudovirus neutralization [28]?
The IC50, pseudovirus neutralization was 0.035 µg/mL.

What about the Pseudovirus - IC50 [29] of the same substance?
Its Pseudovirus - IC50 is 2.68 µg/mL.

What about the Pseudovirus - IC50 [30] of the same substance?
Its Pseudovirus - IC50 is 0.017 µg/mL.

And the IC50, authentic virus neutralization [6]?
Its IC50, authentic virus neutralization is 0.102 µg/mL.

What about the IC50, pseudovirus neutralization [31] of the same substance?
The IC50, pseudovirus neutralization was 1.02 µg/mL.

And the pseudovirus neutralisation IC50 [7]?
The pseudovirus neutralisation IC50 was 0.035 µg/mL.

What about the IC50, authentic virus neutralization [8] of the same substance?
The IC50, authentic virus neutralization was 0.43 µg/mL.

What about the Pseudovirus - IC50 [32] of the same substance?
Its Pseudovirus - IC50 is 1.02 µg/mL.

What about the Authentic virus-IC50 [33] of the same substance?
Its Authentic virus-IC50 is 0.024 µg/mL.

And the Authentic virus-IC50 [34]?
The Authentic virus-IC50 was 0.102 µg/mL.

And the IC50, authentic virus neutralization [10]?
The IC50, authentic virus neutralization was 1.9 µg/mL.

And the IC50, pseudovirus neutralization [10]?
The IC50, pseudovirus neutralization was 2.68 µg/mL.

And the Authentic virus-IC50 [11]?
The Authentic virus-IC50 was 0.032 µg/mL.

What about the IC50, authentic virus neutralization [11] of the same substance?
The IC50, authentic virus neutralization was 0.032 µg/mL.

And the IC50, pseudovirus neutralization [11]?
Its IC50, pseudovirus neutralization is 0.01 µg/mL.

And the Pseudovirus - IC50 [11]?
The Pseudovirus - IC50 was 0.01 µg/mL.

And the pseudovirus neutralisation IC50 [35]?
The pseudovirus neutralisation IC50 was 0.354 µg/mL.

What about the Pseudovirus - IC50 [36] of the same substance?
Its Pseudovirus - IC50 is > 10 µg/mL.

What about the IC50, pseudovirus neutralization [37] of the same substance?
Its IC50, pseudovirus neutralization is 0.017 µg/mL.

What about the Authentic virus-IC50 [38] of the same substance?
Its Authentic virus-IC50 is 0.46 µg/mL.

And the IC50, authentic virus neutralization [12]?
The IC50, authentic virus neutralization was 0.46 µg/mL.

And the Authentic virus-IC50 [39]?
The Authentic virus-IC50 was 0.43 µg/mL.

What about the pseudovirus neutralisation IC50 [13] of the same substance?
Its pseudovirus neutralisation IC50 is 1.02 µg/mL.

And the pseudovirus neutralisation IC50 [14]?
The pseudovirus neutralisation IC50 was 0.017 µg/mL.

And the pseudovirus neutralisation IC50 [15]?
The pseudovirus neutralisation IC50 was > 10 µg/mL.

What about the pseudovirus neutralisation IC50 [16] of the same substance?
The pseudovirus neutralisation IC50 was 2.68 µg/mL.

And the IC50, authentic virus neutralization [17]?
Its IC50, authentic virus neutralization is 4.64 µg/mL.

And the IC50, pseudovirus neutralization [17]?
Its IC50, pseudovirus neutralization is > 10 µg/mL.

What about the IC50, pseudoviral neutralization [18] of the same substance?
Its IC50, pseudoviral neutralization is > 10 µg/mL.

And the IC50, pseudoviral neutralization [19]?
The IC50, pseudoviral neutralization was 0.01 µg/mL.

What about the IC50, pseudoviral neutralization [20] of the same substance?
Its IC50, pseudoviral neutralization is 0.035 µg/mL.

And the IC50, pseudoviral neutralization [21]?
Its IC50, pseudoviral neutralization is > 10 µg/mL.

What about the IC50, pseudoviral neutralization [22] of the same substance?
The IC50, pseudoviral neutralization was > 10 µg/mL.

And the IC50, pseudoviral neutralization [23]?
Its IC50, pseudoviral neutralization is 0.354 µg/mL.

And the IC50, pseudoviral neutralization [24]?
Its IC50, pseudoviral neutralization is 2.68 µg/mL.

And the IC50, pseudoviral neutralization [25]?
The IC50, pseudoviral neutralization was > 10 µg/mL.
